Experimental findings from patent publication US20240376196A1 (HEFEI TG IMMUNOPHARMA, published 2024) are described below.

Assay [1] concerns the target T1, human CD112 extracellular region His tag fusion protein (human, UniProt Q92692 32-360).
T1 construct: Bought from Acro; only its extracellular domain stood in the assay; also called CD112-His; CD112 extracellular domain His tag fusion protein; not shown: His tag
T1 sequence: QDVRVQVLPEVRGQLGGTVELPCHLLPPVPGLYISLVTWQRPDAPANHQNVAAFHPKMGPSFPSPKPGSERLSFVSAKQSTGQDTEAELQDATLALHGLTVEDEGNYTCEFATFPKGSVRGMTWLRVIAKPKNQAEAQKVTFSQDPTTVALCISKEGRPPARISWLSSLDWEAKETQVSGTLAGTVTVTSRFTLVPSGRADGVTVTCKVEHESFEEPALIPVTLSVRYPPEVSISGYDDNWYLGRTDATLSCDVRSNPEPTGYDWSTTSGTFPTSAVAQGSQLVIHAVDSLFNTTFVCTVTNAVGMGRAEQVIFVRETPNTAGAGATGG
Briefly: competition ELISA, CD112-His coated, blocked ligand CD226-Biotin, HRP-streptavidin, OD450. The method, then: (§1) The ELISA experiment was used to determine the blocking characteristic of the murine antibody CD112 9G11 antibody.
(§2) The human CD112-His protein (purchased from Acro) was diluted to 2 μg/ml with PBS buffer and added to a 96-well plate in a volume of 100 μl/well and left overnight at 4° C. The PBS buffer solution was sucked off from the 96-well plate. The plate was washed 6 times with PBST (pH 7.2, PBS containing 0.1 vol % of Tween 20) buffer solution. 200 μL of PBS containing 10% BSA was added per well and incubated at 37° C. for 2 hours for blocking. The blocking solution was removed and the plate was washed 6 times with PBST. […] The reaction system was removed. The plate was washed 6 times with PBST. 100 μL of HRP (horseradish peroxidase)-labeled Streptavidin secondary (purchased from Southern Biotech) antibody diluted with PBST containing 0.05% BSA (diluted at 1:5000) per well and incubated for 1 h at 37° C. The plate was washed 6 times with PBST, and 80 μL of TMB (tetramethylbenzidine) was added per well. After 3 min of incubation at room temperature, 80 μL of 4M sulfuric acid was added per well to terminate the reaction. The absorbance was read at […] with a microplate reader.
In general terms: ELISA stands for enzyme-linked immunosorbent assay.

Assay [2] addresses T1, human CD112 extracellular region His …. The experiment in a line: competition ELISA, CD112-His coated, blocked ligand TIGIT-Biotin, HRP-streptavidin, OD450. Here is the method:
as §1, §2

For assay [3] the target is unchanged. The experiment in a line: competition ELISA, CD112-His coated, blocked ligand CD112R-Fc-Biotin, HRP-streptavidin, OD450. The method, then:
as §1, §2

B1: murine monoclonal antibody 9G11 (antibody, mouse IgG2a, kappa)
heavy: DVKLVESGGGLVKLGGSLKLSCAASGFTFSSYYMSWVRQTPEKRLELVAAINSQGGSTYYPDTVKGRFTISRDNAKNTLYLQMSSLKSEDTGLYYCARSDYDWAWFAYWGQGTLVTVSAAKTTAPSVYPLAPVCGDTTGSSVTLGCLVKGYFPEPVTLTWNSGSLSSGVHTFPAVLQSDLYTLSSSVTVTSSTWPSQSITCNVAHPASSTKVDKKIEPRGPTIKPCPPCKCPAPNLLGGPSVFIFPPKIKDVLMISLSPIVTCVVVDVSEDDPDVQISWFVNNVEVHTAQTQTHREDYNSTLRVVSALPIQHQDWMSGKEFKCKVNNKDLPAPIERTISKPKGSVRAPQVYVLPPPEEEMTKKQVTLTCMVTDFMPEDIYVEWTNNGKTELNYKNTEPVLDSDGSYFMYSKLRVEKKNWVERNSYSCSVVHEGLHNHHTTKSFSRTPGK
light: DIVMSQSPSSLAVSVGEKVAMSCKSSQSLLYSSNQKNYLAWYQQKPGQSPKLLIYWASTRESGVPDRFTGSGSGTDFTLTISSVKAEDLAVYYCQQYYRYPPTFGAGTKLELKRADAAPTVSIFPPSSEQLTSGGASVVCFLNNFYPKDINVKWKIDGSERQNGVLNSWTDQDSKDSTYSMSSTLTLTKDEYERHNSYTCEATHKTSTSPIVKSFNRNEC
notes: also called 9G11 antibody; CD112 murine antibody 9G11
Consider B1, for which the figures for the “IC50 (read off the curve)” value in assay [1], in assay [2] and in assay [3] were approximately 6 mg/L, approximately 0.5 mg/L and approximately 0.5 mg/L, respectively.
